Key:
[1] = target: T1, swine (Microminipig) CD4.A expressed on transfected HEK293 cells (Sus scrofa, Microminipig, allele CD4.A, UniProt A0A0M3VH80, strain); test: flow cytometry on cells; HEK293 transfected with CD4.A or CD4.B (mVenus co-expressed) stained with hybridoma clone supernatant, then anti-mouse IgG-APC; conditions: partners not purified
T1 construct: CD4 allele CD4.A of the Microminipig; also called CD4.A transfectant; source: HEK293, transfected (S/MAR episomal vector, mVenus co-expressed), on cells

[2] = target: T2, swine (Microminipig) CD4.B expressed on transfected HEK293 cells (Sus scrofa, Microminipig, allele CD4.B, UniProt A0A0M4UHP2, strain); test: as above; conditions: partners not purified
T2 construct: CD4 allele CD4.B of the Microminipig; five replacements between the alleles are printed (T61I, G65R, G66S, G68R, T73K); also called CD4.B transfectant; source: HEK293, transfected (S/MAR episomal vector, mVenus co-expressed), on cells

[3] = target: T3, CD4.A, endogenous in CD4.A (+/+) Microminipig cells (Sus scrofa, Microminipig, allele CD4.A …, UniProt A0A0M3VH80, strain); test: flow cytometry on cells; CD4.A (+/+) and CD4.B (+/+) swine PBMCs stained with the purified mAb and anti-mouse IgG-APC (b1D7) or anti-mouse IgG2a-FITC (x1E10); lymphocyte gate; isotype control; conditions: one partner purified
T3 construct: CD4 allele CD4.A of the Microminipig, as in animals genotyped CD4.A (+/+) by PCR-RFLP; allele mRNA LC064059; also called CD4.A (+/+) swine PBMCs; CD4.A (+/+) spleen; source: endogenous, CD4.A (+/+) Microminipig PBMCs and spleen tissue sections

[4] = target: T4, CD4.B, endogenous in CD4.B (+/+) Microminipig cells (Sus scrofa, Microminipig, allele CD4.B …, UniProt A0A0M4UHP2, strain); test: as above; conditions: one partner purified
T4 construct: CD4 allele CD4.B of the Microminipig, as in animals genotyped CD4.B (+/+) by PCR-RFLP; allele mRNA LC064060; also called CD4.B (+/+) swine PBMCs; CD4.B (+/+) spleen; source: endogenous, CD4.B (+/+) Microminipig PBMCs and spleen tissue sections

[5] = target: T1, swine (Microminipig) CD4.A expressed on …; test: flow cytometry on cells; HEK293 transfected with CD4.A or CD4.B stained with biotinylated x1E10 and streptavidin PE-Cy7; conditions: one partner purified
[6] = target: T2, swine (Microminipig) CD4.B expressed on …; test: as above; conditions: one partner purified

Measured: binding result

B1: anti-swine CD4.AB mAb x1E10 (antibody, V domains shown)
VH: DVQLQESGPGLVKPSQSLSLTCTVTGYSIISDYAWNWIRQFPGNKMEWMGYILYSGTTNYNPSLKSRISITRDTSKNQFFLQLNSVTTEDTATYYCARRTYYDYDYYGMDYWGQGTSVTVSS
VL: DVLMTQIPLSLPVSLGDQASISCRSSQTIVHSLGNTYLEWYLQKPGQSPKLLIYKVSNRFSGVPDRFIGSGSGTDFTLKITRVEAEDLGVYYCFQGSHVPWTFGGGTKLEIK
notes: IgG2a kappa; also called x1E10 (1C3-1E8); anti-CD4AB mAb; source: mouse hybridoma (BALB/c splenocytes fused with P3-X63-Ag8-U1), clone supernatant; purified mAb
binds: [1] | [2] | [3] | [4]

B2: biotinylated x1E10 mAb (antibody, V domains shown)
VH: B1 VH
VL: B1 VL
notes: as the heavy chain of m2; as the light chain of m2; IgG2a kappa; same antibody as m2 with a biotin label; also called x1E10 labeled with biotin; source: mouse hybridoma x1E10; biotinylated with Biotin Labeling Kit (Cosmo Bio)
binds: [5] | [6]

From PMC7688132, “Preparation and characterization of monoclonal antibodies recognizing two CD4 isotypes of Microminipigs” (PLoS ONE, 2020)
